Where two headings read alike, the source gives them in different places.
Key:
glucose metabolism = type: in vivo, dog; settings: dogs, estimate (90% CI)
[1] = dog, in vivo
[2] = dog, in vivo; remark: listed apart in the source
[3] = in vivo; cited from earlier work
[4] = dog, in vivo, po

insulin tregopil
Mean difference (human insulin-tregopil): GIR AUC0-120 min (glucose metabolism; intraportal 3.6 pmol/kg/min): -24.1 mg/kg | Mean difference (human insulin-tregopil): NHGB, last 30 min period 1 (glucose metabolism; intraportal 3.6 pmol/kg/min): 0.53 mg/kg/min | Mean difference (human insulin-tregopil): GIR AUC120-240 min (glucose metabolism; intraportal 12.0 pmol/kg/min): -74 mg/kg | Mean difference (human insulin-tregopil): NHGB, last 30 min period 2 (glucose metabolism; intraportal 12.0 pmol/kg/min): 0.30 mg/kg/min | Mean difference (human insulin-tregopil): non-hepatic glucose uptake, last 30 min period 2 (glucose metabolism; intraportal 12.0 pmol/kg/min): -1.6 mg/kg/min | Mean difference (human insulin-tregopil): ΔNHGB, period 1 to period 2 (glucose metabolism; intraportal 3.6 then 12.0 pmol/kg/min): 0.2 mg/kg/min | Fraction extracted on first-pass by the liver [1]: one-third | Median tmax [2]: 20 min | Time to peak concentration (tmax) [3]: 30 min | Off-times (dog, in vivo): ≤ 120 min | tmax (dog, in vivo): ≤ 20 min | Duration of PD effect after a dose (dogs, oral dose, statement in discussion): 90 min | Cmax of first dose compared with second dose [4]: 117% | Insulin AUC0–120 of first dose compared with second dose [4]: 118% | Mean Cmax of first dose compared with second dose [4]: 88% | tmax [4]: 20 min
